Assay: yeast display, Sf9 membrane polyspecificity reagent, FACS + sequencing; frameworks hold sequencing errors
Method in brief: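 Polyreactivity labels are assigned by the sorting gate from which each nanobody was recovered. The gates were low and high (top ~1%), set on anti-HA fluorescence for expression and streptavidin fluorescence for reagent binding. Before sorting, galactose-induced (36–48 hours) yeast display cells were stained for 1 hour at 4 °C with 10% biotinylated, detergent-solubilized Sf9 membrane reagent.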

In the case of “QVQLVESGGGLVQAGGSLRLSCAASGRTFYFYAMGWYRQAPGKERELVASISWSGGRTYYADSVKGRFTISRDNAKNTVYLQMNSLKPEVTSVYYSAAALWTGYSWGQATQVTVSS”, the “polyreactivity (PSR sort gate)” value is reported as “low polyreactivity”.

In the case of “QVQLVESGGGLVQAGGSLRLSCAASGRTFYGNAMGWYRQAPGKERELVAAISWSGCGTYYADSVKGRFTISRDNAKNTVYLQMNSLKPEDTAVYYCARTLFGRSANRYGYWGQGTQVTVSS”, the “polyreactivity (PSR sort gate)” value is reported as “high polyreactivity”.

For “QVQLVESGGGLVQAGGSLRLSCAASGRTFYGNAMGWYRQAPGKERELVAGITRGGSTYYADSVKGRFTISRDNAKNTVYLQMNSLKPEDTAVYYCAATRYYSWGSRGGYWGQGTQVTVSS”, the “polyreactivity (PSR sort gate)” value was “high polyreactivity”.

With “QVQLVESGGGLVQAGGSLRLSCAASGRTFYGNGMGWYRQAPGKRELVAAISYSGASTYYADSVKGRFTISRDNAKNTVCLLMNSLKPEDTAVYYCAAQPSVYCSLFTRASEDYWGQGTQVTVSS” the “polyreactivity (PSR sort gate)” value was “high polyreactivity”.

In the case of “QVQLVESGGGLVQAGGSLRLSCAASGRTFYGNVMGWYRQPPGKERELVATISFSAGSTYYADSVKGRFTISRDNAKNTVYLQMNSLKPEDTAVYYCNADHTDYATGGGNYWGQGTQVTVSS”, the “polyreactivity (PSR sort gate)” value is reported as “low polyreactivity”.

In the case of “QVQLVESGGGLVQAGGSLRLSCAASGRTFYGYAIGRYIQAPGNERELVAAISRRGGSTNYADSVKGRFTISRDNAKNTVFLQMNSLKPEDTAVYYCNANYYRTHYDYWGQGTQVTVSS”, the “polyreactivity (PSR sort gate)” value is reported as “high polyreactivity”.

For “QVQLVESGGGLVQAGGSLRLSCAASGRTFYGYAMGWYRQAPGKERELVAAISFSGGRTYYADSVKGRFTISRDNAKNTVYLQMNSLKPEDTAVYYCAAVPRGWFSYPSGYDYWGQGTQVTVSS”, the “polyreactivity (PSR sort gate)” value was “high polyreactivity”.

With “QVQLVESGGGLVQAGGSLRLSCAASGRTFYGYAMGWYRQAPGKERELVAAITQRGVSTYADSVKGRFTISRDNAKNTVYLQMNSLKPEDTAVYYCAAEYYAYPYGDDYDYWGQGTQVTVSS” the “polyreactivity (PSR sort gate)” value was “low polyreactivity”.

With “QVQLVESGGGLVQAGGSLRLSCAASGRTFYGYAMGWYRQAPGKERELVAAITSSGGSTYYADSVKGRFTISRDNAKNTVYLQMNSLKPEDTAVYYCAKTSRYLTGGGDYWGQGTQVTVSS” the “polyreactivity (PSR sort gate)” value was “high polyreactivity”.

In the case of “QVQLVESGGGLVQAGGSLRLSCAASGRTFYGYAMGWYRQAPGKERELVASISRDASTNYADSVKGRFTISRDNAKNTVYLQMNSLKPEDTAVYYCAADIWYYRYPIYYYSYDYWGLGTQVTVSS”, the “polyreactivity (PSR sort gate)” value is reported as “low polyreactivity”.

In the case of “QVQLVESGGGLVQAGGSLRLSCAASGRTFYGYPMGWYRQAPGKERELVAAISWSGGSTYYADSVKGRFTISRDNAKNTVYLQMNSLKPEDTAVYYCAAYTYSFRANHDYWGQGTQVTVSS”, the “polyreactivity (PSR sort gate)” value is reported as “high polyreactivity”.

With “QVQLVESGGGLVQAGGSLRLSCAASGRTFYGYTMGWYRPAPGKERELVAAITYSGDSTYYADSVKGRFTISRDNAKNTVYLQLNSLKPEDTAVYYCNAVGRYPVYWWGYYYWGQGTQVTVSS” the “polyreactivity (PSR sort gate)” value was “high polyreactivity”.

For “QVQLVESGGGLVQAGGSLRLSCAASGRTFYHNAMGWYRPAPGKEWELVASIRWSGGSTYADSVKGRFTISRDNAKNTVYLQMNSLKPEDTAGYYCAKVGKSLYPVDYYSWGQGTQVTVSS”, the “polyreactivity (PSR sort gate)” value was “high polyreactivity”.

For “QVQLVESGGGLVQAGGSLRLSCAASGRTFYHYAIGWSRQAPGKEREMVAAITRRGGSTYYADSVKGRFTISRDNAKNTVYLQMNRLKPEDTAVYYCAVDGVTSRRYVYEYWGQGTQVTVSS”, the “polyreactivity (PSR sort gate)” value was “high polyreactivity”.

With “QVQLVESGGGLVQAGGSLRLSCAASGRTFYHYAMGWYRQAPGKESELVAAIDWSTASTYYADSVKGRFTISRDNAKNTVYLQMNSLKPEDTAVYYCATDTAILINFVLYDYWGQGTQVTVSS” the “polyreactivity (PSR sort gate)” value was “low polyreactivity”.

In the case of “QVQLVESGGGLVQAGGSLRLSCAASGRTFYINAMGWYRQAPGKERELVAGITRGGSTNYADSVKGRFTISRDNAKNTVYLQMNSLKPEDTAVYYCNAARAERWGRGSYPEFDYWGQGTQVTVSS”, the “polyreactivity (PSR sort gate)” value is reported as “high polyreactivity”.

In the case of “QVQLVESGGGLVQAGGSLRLSCAASGRTFYINAMGWYRQAPGKERELVATISRSGGDTYYADSVKGRFTISRDNAKNTVYLQMNSLKPEDTAVYYCNARQYYYRSGAYASRYLYNYWGQGTQVTVSS”, the “polyreactivity (PSR sort gate)” value is reported as “high polyreactivity”.

In the case of “QVQLVESGGGLVQAGGSLRLSCAASGRTFYIYALGWYRQAPGKERELVAAISWGSGSTYYADSVKGRFTISRDNAKNTVYLQMNSLKPEDTAVYYCAAEYAYPSEWTYDYWGQGTQVTVSS”, the “polyreactivity (PSR sort gate)” value is reported as “low polyreactivity”.

With “QVQLVESGGGLVQAGGSLRLSCAASGRTFYIYAMGWYRQAPGKERALDAAITYGGGRTFYADSVKGRFTISRDNAKNTVYLQMNSLKPEDTAVYYCAATVRGKRSTYDYWGQGTQVTVSS” the “polyreactivity (PSR sort gate)” value was “high polyreactivity”.

With “QVQLVESGGGLVQAGGSLRLSCAASGRTFYIYAMGWYRQAPGKERELVAAISWSGGTTYYADSVKGRFTISRDHAKNTVYLQMNSLKPEDTAVYYCNVYPAYNYFDYDYWGQGTQVTVSS” the “polyreactivity (PSR sort gate)” value was “high polyreactivity”.

With “QVQLVESGGGLVQAGGSLRLSCAASGRTFYIYAMGWYRQAPGKLRQLVAVIRGSGGSTYYADSVKGRFTISRDNAKYTVYLQMNSQKPEDTAVYYCAARRYQYVWSLYNYWGQGTQVTVSS” the “polyreactivity (PSR sort gate)” value was “high polyreactivity”.

For “QVQLVESGGGLVQAGGSLRLSCAASGRTFYKNTMGWYRQAPGKERELVAPITRRGGTPYYADSVKGRFTISRDNAKNTVYLQMNSLQPEDTAVYYCAVLTWYFLLQYGYYQEGDYWGQGTQVTVSS”, the “polyreactivity (PSR sort gate)” value was “low polyreactivity”.

For “QVQLVESGGGLVQAGGSLRLSCAASGRTFYKYAMGWYRQAPGKEREFVADISSRGGSTYYADSVKGRFTISRDNAKNTVYLQMNSLKPEDTAVYYCAARPRPRSANGMYYWGQGTQVTVSS”, the “polyreactivity (PSR sort gate)” value was “high polyreactivity”.

For “QVQLVESGGGLVQAGGSLRLSCAASGRTFYKYAMGWYRQAPGKERELVAAISRRGGSTYYADSVKGRFTISRDNAKNTVYLQMNSLKPEDTAVYDCAADPDTKGFYVYRLVRVRYGYWGQGTQVTVSS”, the “polyreactivity (PSR sort gate)” value was “high polyreactivity”.

With “QVQLVESGGGLVQAGGSLRLSCAASGRTFYKYAMGWYRQAPGKERELVAAITSGGGRTYYADSVKGRFTISRDNAKNTVYLQMNSLIPEDTAVYYCNAVLPLAKYEYDSWGQGTQVTVSS” the “polyreactivity (PSR sort gate)” value was “high polyreactivity”.

For “QVQLVESGGGLVQAGGSLRLSCAASGRTFYKYGMGWYRQAPGKERELVARINSNGGSTYYADSVKGRFTISRDNAKNTVYLQMNSLKPEDTAVYYCARSYVRSYGYYYWGKGTQVTVSS”, the “polyreactivity (PSR sort gate)” value was “low polyreactivity”.

In the case of “QVQLVESGGGLVQAGGSLRLSCAASGRTFYKYVMGWYRQAPGKERELVAAITRSGGGTYYADSVKGRFTISRDNAKNTVYLQMNSLKPEDTAVYYCAVSGRSYYRSDYWGQGTQVTVSS”, the “polyreactivity (PSR sort gate)” value is reported as “high polyreactivity”.

In the case of “QVQLVESGGGLVQAGGSLRLSCAASGRTFYLYAMGWYRQAPGKEREFVAAISWSTGSTYYADSVKGRFTISRDNAKNTVYLQMNSLKPEDTAVYYCAASTFTGYPKMYYWGQGTQVTVSS”, the “polyreactivity (PSR sort gate)” value is reported as “high polyreactivity”.

With “QVQLVESGGGLVQAGGSLRLSCAASGRTFYLYAMGWYRQAPGKERELVAAITFNGGSTYYADSVKGRFTISRDNAKNTVYLQMNSLKPEDTAVYYCAARLSKRSGYYYWGQGTQVTVSS” the “polyreactivity (PSR sort gate)” value was “high polyreactivity”.

In the case of “QVQLVESGGGLVQAGGSLRLSCAASGRTFYNNAMGWDRQAPGKERELVATINNRGGPTYYADSVKGRFTISRDNAQNTVYFQMNSLKPEDTAVYYCAASGWHGYNYWGQGTQVTVSS”, the “polyreactivity (PSR sort gate)” value is reported as “high polyreactivity”.

For “QVQLVESGGGLVQAGGSLRLSCAASGRTFYPNAMGWYRQAPGKERELVAAITTDGSTYYADSVKGRFTISRDNAKNTVYLQMNSLKPEDTAVYYCAARGFWWPYTYYYWGHGTQVTVSS”, the “polyreactivity (PSR sort gate)” value was “high polyreactivity”.

From the nanobody polyreactivity screen of Harvey et al. (2022)
